Legend:
AncSZ = experiment: phosphorylation enrichment, bacterial display (enrichment ratio); higher = better substrate or ligand; peptides without Tyr show the background
EPHB1 = EPHB1 (UniProt P54762); experiment: as above
EPHB2 = EPHB2 (UniProt P29323); experiment: as above
FGFR1 = FGFR1 (UniProt P11362); experiment: as above
FGFR3 = FGFR3 (UniProt P22607); experiment: as above
Fer (mouse) = experiment: as above
Fes = Fes (UniProt P07332); experiment: as above
Fyn = Fyn (UniProt P06241); experiment: as above
Fyn, sequence (P06241 whole entry, looked up): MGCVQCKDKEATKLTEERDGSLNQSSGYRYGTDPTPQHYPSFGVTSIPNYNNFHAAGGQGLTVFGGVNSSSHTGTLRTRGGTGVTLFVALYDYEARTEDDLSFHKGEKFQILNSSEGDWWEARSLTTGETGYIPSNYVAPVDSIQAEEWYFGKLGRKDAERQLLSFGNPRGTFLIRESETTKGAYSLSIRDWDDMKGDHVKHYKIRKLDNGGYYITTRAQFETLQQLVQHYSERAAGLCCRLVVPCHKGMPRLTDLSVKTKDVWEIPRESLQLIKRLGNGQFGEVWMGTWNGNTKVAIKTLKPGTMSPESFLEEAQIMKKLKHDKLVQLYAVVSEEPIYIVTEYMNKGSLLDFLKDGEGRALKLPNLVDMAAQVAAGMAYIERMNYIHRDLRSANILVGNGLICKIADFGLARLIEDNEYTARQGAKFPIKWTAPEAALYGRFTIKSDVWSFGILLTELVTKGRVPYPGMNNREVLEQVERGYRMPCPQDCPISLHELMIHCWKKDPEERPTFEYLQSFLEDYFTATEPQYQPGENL

Hck = Hck (UniProt P08631); experiment: as above
Jak2 = Jak2 (UniProt O60674); experiment: as above
Jak2, sequence (O60674 whole entry, looked up): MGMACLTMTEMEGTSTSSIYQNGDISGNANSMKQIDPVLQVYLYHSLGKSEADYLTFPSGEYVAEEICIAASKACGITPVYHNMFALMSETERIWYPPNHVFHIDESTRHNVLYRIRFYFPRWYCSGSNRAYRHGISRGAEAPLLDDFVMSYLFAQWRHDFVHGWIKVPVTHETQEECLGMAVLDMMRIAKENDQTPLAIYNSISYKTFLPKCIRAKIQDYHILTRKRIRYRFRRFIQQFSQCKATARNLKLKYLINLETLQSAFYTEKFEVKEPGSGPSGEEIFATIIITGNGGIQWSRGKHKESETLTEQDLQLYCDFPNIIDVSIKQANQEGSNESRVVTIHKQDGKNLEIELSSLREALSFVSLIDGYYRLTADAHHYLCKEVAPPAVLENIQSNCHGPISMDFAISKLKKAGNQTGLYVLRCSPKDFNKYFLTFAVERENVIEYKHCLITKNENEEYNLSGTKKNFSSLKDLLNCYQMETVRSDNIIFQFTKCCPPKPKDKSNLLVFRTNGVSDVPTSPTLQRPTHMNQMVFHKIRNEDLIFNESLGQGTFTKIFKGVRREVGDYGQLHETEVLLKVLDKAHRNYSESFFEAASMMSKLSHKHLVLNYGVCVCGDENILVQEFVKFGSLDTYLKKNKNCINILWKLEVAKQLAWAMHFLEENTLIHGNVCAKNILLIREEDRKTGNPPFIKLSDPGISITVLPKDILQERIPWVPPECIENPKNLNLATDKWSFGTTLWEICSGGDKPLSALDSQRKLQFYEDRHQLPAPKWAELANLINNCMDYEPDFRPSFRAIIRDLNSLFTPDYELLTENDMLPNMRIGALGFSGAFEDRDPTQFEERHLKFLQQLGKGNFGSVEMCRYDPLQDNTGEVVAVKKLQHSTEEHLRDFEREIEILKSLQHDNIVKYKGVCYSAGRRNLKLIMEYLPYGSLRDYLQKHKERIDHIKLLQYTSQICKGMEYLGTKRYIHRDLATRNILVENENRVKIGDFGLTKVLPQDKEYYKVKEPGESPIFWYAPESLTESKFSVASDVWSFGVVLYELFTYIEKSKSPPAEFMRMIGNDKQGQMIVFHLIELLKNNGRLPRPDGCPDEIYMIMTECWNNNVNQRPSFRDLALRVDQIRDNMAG

MERTK = MERTK (UniProt Q12866); experiment: as above
c-Abl (mouse) = experiment: as above
c-Src = experiment: as above
Grb2 SH2 = Grb2 SH2 (UniProt P62993); experiment: SH2 binding enrichment of the phosphorylated peptide, bacterial display (enrichment ratio); higher = better substrate or ligand; peptides without Tyr show the background
Grb2 SH2, sequence (P62993 whole entry, looked up): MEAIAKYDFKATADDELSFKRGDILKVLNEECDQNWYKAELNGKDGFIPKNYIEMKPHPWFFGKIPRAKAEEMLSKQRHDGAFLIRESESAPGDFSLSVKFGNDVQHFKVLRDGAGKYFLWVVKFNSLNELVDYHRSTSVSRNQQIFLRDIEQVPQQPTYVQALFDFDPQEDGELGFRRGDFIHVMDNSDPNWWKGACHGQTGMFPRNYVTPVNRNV

SHP2-C SH2 = experiment: as above
c-Src SH2 = experiment: as above
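Wherever SH2 binding enrichment of the phosphorylated peptide, bacterial display is given: peptide library displayed on the E. coli surface as eCPX fusions, selected cells deep-sequenced, score is each peptide's frequency after selection divided by its frequency in the input.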
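Wherever phosphorylation enrichment, bacterial display is given: 11-residue human phosphosite peptides and single-mutation variants displayed on the E. coli surface, counted by deep sequencing, each peptide's frequency after selection divided by its frequency in the unselected input library; frequency after pTyr selection over input frequency; kinase dosed for 20-30% of maximal phosphorylation in three min.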

EPHB1, sequence (P54762 whole entry, looked up): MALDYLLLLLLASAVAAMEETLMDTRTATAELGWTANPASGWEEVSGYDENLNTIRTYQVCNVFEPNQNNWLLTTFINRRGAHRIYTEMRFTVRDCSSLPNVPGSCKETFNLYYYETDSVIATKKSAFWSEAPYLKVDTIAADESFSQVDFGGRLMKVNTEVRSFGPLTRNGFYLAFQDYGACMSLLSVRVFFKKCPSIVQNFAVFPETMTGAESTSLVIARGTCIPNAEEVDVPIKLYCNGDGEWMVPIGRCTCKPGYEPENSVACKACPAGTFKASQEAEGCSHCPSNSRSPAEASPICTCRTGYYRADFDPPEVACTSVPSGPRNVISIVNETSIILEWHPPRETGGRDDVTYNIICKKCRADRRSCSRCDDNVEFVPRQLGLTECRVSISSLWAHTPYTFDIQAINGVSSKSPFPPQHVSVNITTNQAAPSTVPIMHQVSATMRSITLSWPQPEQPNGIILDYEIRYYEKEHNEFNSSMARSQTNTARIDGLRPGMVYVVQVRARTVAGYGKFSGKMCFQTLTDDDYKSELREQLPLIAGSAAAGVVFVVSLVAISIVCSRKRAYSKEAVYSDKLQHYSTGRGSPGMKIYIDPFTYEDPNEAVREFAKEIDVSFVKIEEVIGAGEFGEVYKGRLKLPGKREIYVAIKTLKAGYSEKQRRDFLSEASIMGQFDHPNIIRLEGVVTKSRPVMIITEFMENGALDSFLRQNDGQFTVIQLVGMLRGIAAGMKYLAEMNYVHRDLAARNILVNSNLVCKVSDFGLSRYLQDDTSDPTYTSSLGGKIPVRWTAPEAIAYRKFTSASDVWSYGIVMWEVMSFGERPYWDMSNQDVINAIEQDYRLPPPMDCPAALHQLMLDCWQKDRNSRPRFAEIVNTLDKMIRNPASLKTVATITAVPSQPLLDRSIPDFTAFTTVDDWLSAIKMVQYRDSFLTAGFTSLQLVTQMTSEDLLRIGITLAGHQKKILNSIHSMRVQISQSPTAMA
Fes, sequence (P07332 whole entry, looked up): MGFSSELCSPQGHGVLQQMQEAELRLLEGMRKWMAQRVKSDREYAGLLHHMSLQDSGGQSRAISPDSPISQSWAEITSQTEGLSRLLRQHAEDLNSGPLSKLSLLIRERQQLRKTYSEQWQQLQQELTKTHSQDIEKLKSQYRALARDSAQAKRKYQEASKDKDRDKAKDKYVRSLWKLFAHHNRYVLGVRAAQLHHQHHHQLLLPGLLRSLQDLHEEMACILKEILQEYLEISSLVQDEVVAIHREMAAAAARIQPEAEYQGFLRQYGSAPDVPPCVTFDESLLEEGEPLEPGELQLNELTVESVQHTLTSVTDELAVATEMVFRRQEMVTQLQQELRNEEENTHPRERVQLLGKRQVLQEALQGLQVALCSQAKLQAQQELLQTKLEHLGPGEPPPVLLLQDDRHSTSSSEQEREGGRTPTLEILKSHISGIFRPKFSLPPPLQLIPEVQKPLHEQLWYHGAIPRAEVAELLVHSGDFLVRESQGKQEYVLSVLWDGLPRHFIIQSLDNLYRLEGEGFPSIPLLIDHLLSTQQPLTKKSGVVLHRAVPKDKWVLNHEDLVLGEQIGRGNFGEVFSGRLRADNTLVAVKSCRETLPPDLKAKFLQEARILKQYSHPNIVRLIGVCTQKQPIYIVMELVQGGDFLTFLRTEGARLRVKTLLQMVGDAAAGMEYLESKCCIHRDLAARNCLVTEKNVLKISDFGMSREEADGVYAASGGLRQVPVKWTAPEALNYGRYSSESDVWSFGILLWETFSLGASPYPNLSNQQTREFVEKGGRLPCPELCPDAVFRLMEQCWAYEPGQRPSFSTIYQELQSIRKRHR
EPHB2, sequence (P29323 whole entry, looked up): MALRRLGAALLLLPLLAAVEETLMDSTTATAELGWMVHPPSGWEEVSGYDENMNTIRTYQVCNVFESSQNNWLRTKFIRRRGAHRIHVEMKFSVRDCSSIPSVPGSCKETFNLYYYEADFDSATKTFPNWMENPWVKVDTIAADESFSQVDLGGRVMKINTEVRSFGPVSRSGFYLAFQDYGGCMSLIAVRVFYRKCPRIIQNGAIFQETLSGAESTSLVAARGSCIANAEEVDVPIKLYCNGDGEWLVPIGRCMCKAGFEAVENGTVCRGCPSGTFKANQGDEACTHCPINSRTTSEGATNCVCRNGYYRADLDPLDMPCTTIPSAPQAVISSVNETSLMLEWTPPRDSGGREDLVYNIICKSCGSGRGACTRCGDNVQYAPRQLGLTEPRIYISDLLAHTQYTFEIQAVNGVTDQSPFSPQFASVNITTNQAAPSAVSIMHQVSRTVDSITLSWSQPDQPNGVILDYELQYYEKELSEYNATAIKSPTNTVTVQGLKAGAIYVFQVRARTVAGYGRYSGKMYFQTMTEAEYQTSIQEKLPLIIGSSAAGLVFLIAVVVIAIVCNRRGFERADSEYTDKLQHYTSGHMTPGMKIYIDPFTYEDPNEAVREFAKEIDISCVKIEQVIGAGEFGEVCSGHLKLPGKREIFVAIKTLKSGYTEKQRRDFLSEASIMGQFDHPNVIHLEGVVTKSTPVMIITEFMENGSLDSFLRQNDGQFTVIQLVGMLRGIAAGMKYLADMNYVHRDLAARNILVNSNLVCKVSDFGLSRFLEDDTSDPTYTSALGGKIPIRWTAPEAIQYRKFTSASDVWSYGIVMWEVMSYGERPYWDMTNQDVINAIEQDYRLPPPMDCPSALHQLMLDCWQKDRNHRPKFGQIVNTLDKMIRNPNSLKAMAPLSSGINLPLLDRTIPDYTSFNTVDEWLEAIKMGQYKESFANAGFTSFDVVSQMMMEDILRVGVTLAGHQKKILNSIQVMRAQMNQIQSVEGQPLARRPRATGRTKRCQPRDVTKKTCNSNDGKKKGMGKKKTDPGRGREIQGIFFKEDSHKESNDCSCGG

Sequence	phosphorylation enrichment (AncSZ)	phosphorylation enrichment (EPHB1)	phosphorylation enrichment (EPHB2)	phosphorylation enrichment (FGFR1)	phosphorylation enrichment (FGFR3)	phosphorylation enrichment (Fer (mouse))	phosphorylation enrichment (Fes)	phosphorylation enrichment (Fyn)	phosphorylation enrichment (Hck)	phosphorylation enrichment (Jak2)	phosphorylation enrichment (MERTK)	phosphorylation enrichment (c-Abl (mouse))	phosphorylation enrichment (c-Src)	SH2 binding enrichment (Grb2 SH2)	SH2 binding enrichment (SHP2-C SH2)	SH2 binding enrichment (c-Src SH2)
PADSGYPAFLG [ATP6V1A_Y374_YF]	1.72	1.51	0.6	0.981	1.36	0.759	1.88	1.04	0.959	1.1	0.87	1.12	0.772	0.765	0.502	0.423
PAIERYVVVCK [RHO_Y136_L131P]	1.08	0.896	0.846	0.505	0.851	0.473	1.41	0.612	0.551	1.08	0.374	0.928	0.474	0.857	0.751	0.686
PDMHSYVVRFN [GRIN2D_Y732_M733V_YF]	0.882	0.658	0.464	0.78	0.797	0.411	1.04	0.467	0.431	1.81	0.531	0.873	0.553	1.29	1	1.25
PELINYHQHYS [BTK_Y361_N365Y]	0.742	1.23	1.68	0.769	0.585	0.427	0.688	0.662	0.356	0.577	0.319	0.563	0.5	1.08	1.07	0.658
PELINYHQPNS [BTK_Y361_H364P]	0.928	1.04	0.727	0.723	0.857	0.678	0.908	0.597	0.734	0.829	0.657	0.574	0.8	1.07	0.763	0.704
PFAEPYADFGG [APBA1_Y187_S184A_YF]	1.13	0.695	0.593	0.68	0.802	0.38	1.2	0.72	0.673	0.993	0.571	0.638	2.43	0.742	0.682	0.676
PFFTSYPPSPD [GDAP2_Y491_YF]	0.907	0.438	0.447	0.557	0.644	0.507	1.15	0.498	0.356	1.14	0.629	0.901	0.588	0.739	0.568	0.471
PFQGAYLEINK [MYO1B_Y967]	1.03	0.609	0.577	0.485	0.763	0.401	1.09	0.526	0.361	1.24	0.464	0.497	0.607	0.874	0.832	7.89
PFRQWYESHFA [RPS8_Y113_YF]	1.08	0.827	0.786	0.731	0.524	3.73	1.11	0.586	0.68	0.963	0.906	0.764	0.972	1.22	1.04	1.07
PFSNPYENSLI [EPOR_Y489_YF]	1.92	0.92	0.929	0.964	1.02	2.23	1.48	1.04	0.848	3.41	0.675	1.18	1.01	15.5	0.501	4.88
PFTRNYYVWAV [CYBA_Y87_R90W]	1.41	3.1	3.42	9.92	8.21	1.2	1.12	0.744	1.03	2.5	6.79	4.71	0.777	1.32	1.54	0.899
PGVDIYISPNM [PADI3_Y51]	1.64	1.17	0.973	1.67	1.11	0.814	1.8	1.02	1.38	1.75	0.534	1.68	0.894	0.728	0.592	0.366
PHMQTYEVDPN [SDHB_Y61_L65P]	1.19	0.782	0.628	0.511	0.761	0.758	1.49	0.586	0.791	1.04	0.522	0.932	1.35	0.974	0.717	0.555
PLGPLYASSNP [INSR_Y992]	0.96	1.14	1.01	0.683	0.742	1.82	1.65	1.27	4.49	0.941	1.49	1.47	1.35	0.641	0.709	0.75
PLGVPYLDKPP [JMJD7_Y31_A28G]	0.955	0.901	0.794	0.6	0.825	0.574	1.64	0.679	0.463	1.55	0.942	1.57	0.909	0.862	0.645	0.46
PLRADYLIARV [HLCS_Y635]	0.777	0.312	0.487	0.8	0.495	0.515	1.1	0.319	0.461	0.747	0.717	0.853	0.582	0.896	0.711	0.46
